Assay results taken from patent publication US20230287402A1 (University of Washington, published 2023).

How the values were obtained:
[1] = molecular target: T1, B(c)GFP, cyclic B component with C-terminal GFP (Di13BLB_C_GFP); assay: stepwise array assembly on NIH/3T3 cells
[2] = molecular target: T1, B(c)GFP, cyclic B component with …; assay: calibrated microscope, corrected for FRET between GFP and mScarlet
[3] = molecular target: T1, B(c)GFP, cyclic B component with …; assay: quantitative fluorescence microscopy of preformed arrays

B1: A component of design #13 (D3 homooligomer, designed from 1d2t) (designed binder)
chain: MGHHHHHHGGLALVATGNDTTTKPDLYYLKNSEAINSLALLPPPPAVGSIAFLNDQAMYEQGRLLRNTERGKLAAEDANLSSGGVANAFSGAFGSPITEKDAPALHKLLTNMIEDAGDLATRSAKDHYMRIRPFAFYGVSTCNTTEQDKLSKNGSYPSGHTSIGWATALVLAEINPQRQNEILKRGYELGQSRVICGYHWQSDVDAARVVGSAVVATLHTNPEFQAQLIKAKIEFKQHQKEL
notes: also called component A; dihedral A
- binding result [1]: binds

B2: A(d)mScarlet, dihedral A component with N-terminal mScarlet (A_n_mScarlet) (designed binder)
chain: NKIHGSHHHHHHGSTSGSAMVSKGEAVIKEFMRFKVHMEGSMNGHEFEIEGEGEGRPYEGTQTAKLKVTKGGPLPFSWDILSPQFMYGSRAFTKHPADIPDYYKQSFPEGFKWERVMNFEDGGAVTVTQDTSLEDGTLIYKVKLRGTNFPPDGPVMQKKTMGWEASTERLYPEDGVLKGDIKMALRLKDGGRYLADFKTTYKAKKPVQMPGAYNVDRKLDITSHNEDYTVVEQYERSEGRHSTGGMDELYKGGSGGSLALVATGNDTTTKPDLYYLKNSEAINSLALLPPPPAVGSIAFLNDQAMYEQGRLLRNTERGKLAAEDANLSSGGVANAFSGAFGSPITEKDAPALHKLLTNMIEDAGDLATRSAKDHYMRIRPFAFYGVSTCNTTEQDKLSKNGSYPSGHTSIGWATALVLAEINPQRQNEILKRGYELGQSRVICGYHWQSDVDAARVVGSAVVATLHTNPEFQAQLIKAKIEFKQHQK
notes: also called AmScarlet
- A/B ratio of arrays generated on cells [2]: 0.99
- mScarlet/GFP fluorescence ratio (arrays formed in vitro) [3]: 1.45
